How the values were obtained:
[1] = biological target: T1, human LAG-3 expressed on the surface of CHO cells (human, UniProt P18627 23-525); experiment: binding to LAG-3 expressing CHO cells
T1 construct: whole, on cells; also called LAG-3 expressing CHO cells; cell-surface-expressed LAG-3
T1 sequence (looked up): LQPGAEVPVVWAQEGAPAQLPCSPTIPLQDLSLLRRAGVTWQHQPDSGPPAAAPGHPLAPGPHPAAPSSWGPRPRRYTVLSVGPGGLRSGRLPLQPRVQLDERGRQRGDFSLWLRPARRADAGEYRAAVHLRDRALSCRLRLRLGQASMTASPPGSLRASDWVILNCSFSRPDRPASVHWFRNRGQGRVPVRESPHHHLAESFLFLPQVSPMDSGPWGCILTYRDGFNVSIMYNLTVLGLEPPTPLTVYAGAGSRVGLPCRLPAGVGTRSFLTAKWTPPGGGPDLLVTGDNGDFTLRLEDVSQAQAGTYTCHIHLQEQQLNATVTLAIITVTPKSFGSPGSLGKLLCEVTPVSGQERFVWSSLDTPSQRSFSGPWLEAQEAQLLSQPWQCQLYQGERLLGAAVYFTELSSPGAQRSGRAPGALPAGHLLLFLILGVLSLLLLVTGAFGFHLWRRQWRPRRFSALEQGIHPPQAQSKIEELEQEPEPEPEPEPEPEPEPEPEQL

[2] = biological target: T2, cynomolgus monkey LAG-3 expressed on the surface of CHO cells (cynomolgus monkey); experiment: binding to LAG-3 expressing CHO cells
T2 construct: whole, on cells; also called Cyno LAG-3; LAG-3 expressing CHO cells

[3] = biological target: T3, LAG-3 expressed on Jurkat cells (Homo sapiens (Human), UniProt P18627 23-525); experiment: cell-based or functional assay
T3 sequence: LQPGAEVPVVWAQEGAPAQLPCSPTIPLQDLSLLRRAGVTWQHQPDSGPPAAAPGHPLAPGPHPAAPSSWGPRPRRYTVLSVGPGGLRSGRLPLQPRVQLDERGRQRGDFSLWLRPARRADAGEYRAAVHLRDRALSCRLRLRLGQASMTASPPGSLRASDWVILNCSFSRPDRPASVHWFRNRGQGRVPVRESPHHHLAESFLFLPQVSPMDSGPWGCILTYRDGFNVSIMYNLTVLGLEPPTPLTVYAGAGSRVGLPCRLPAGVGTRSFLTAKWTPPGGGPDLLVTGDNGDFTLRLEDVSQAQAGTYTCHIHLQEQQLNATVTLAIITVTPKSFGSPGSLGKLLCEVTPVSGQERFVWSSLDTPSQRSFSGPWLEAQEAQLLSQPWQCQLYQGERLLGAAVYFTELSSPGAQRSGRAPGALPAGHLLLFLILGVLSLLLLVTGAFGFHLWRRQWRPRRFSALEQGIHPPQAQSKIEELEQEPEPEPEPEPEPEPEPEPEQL

[4] = biological target: T4, LAG-3 (axis label "%LAG-3 OCCUPANCY", DONOR 1 to DONOR 4) (human, UniProt P18627); experiment: receptor occupancy assay on SEB-stimulated human donor PBMCs (4 donors)
T4 construct: full-length, on the cell surface; also called LAG-3 on SEB-stimulated human donor PBMCs
T4 sequence (receptor, looked up): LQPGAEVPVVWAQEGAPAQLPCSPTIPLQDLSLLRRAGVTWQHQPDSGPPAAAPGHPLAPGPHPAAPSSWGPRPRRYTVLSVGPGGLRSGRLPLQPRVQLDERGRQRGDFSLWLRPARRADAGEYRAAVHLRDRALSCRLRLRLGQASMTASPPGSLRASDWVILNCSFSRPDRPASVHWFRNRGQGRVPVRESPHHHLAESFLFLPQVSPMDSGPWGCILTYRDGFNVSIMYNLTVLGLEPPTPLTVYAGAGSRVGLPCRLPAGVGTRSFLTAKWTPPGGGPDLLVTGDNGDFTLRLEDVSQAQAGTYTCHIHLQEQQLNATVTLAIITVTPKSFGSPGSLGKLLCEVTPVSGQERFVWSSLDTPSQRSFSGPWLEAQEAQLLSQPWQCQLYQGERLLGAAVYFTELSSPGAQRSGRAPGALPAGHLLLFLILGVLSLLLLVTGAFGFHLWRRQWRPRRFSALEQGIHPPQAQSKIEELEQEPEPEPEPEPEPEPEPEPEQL

[5] = biological target: DyLight 650 (DyL650)-labeled LAG-3 fusion protein; experiment: flow cytometry competition: antibody titrated against binding of the DyL650-labeled LAG-3 fusion protein to MHC class II on Daudi cells; readout MFI (Dyl650)
[6] = biological target: T5, recombinant soluble human LAG-3 (human, UniProt P18627 23-450, limits assumed); experiment: SPR, recombinant soluble LAG-3
T5 construct: also called soluble LAG-3
T5 sequence (looked up): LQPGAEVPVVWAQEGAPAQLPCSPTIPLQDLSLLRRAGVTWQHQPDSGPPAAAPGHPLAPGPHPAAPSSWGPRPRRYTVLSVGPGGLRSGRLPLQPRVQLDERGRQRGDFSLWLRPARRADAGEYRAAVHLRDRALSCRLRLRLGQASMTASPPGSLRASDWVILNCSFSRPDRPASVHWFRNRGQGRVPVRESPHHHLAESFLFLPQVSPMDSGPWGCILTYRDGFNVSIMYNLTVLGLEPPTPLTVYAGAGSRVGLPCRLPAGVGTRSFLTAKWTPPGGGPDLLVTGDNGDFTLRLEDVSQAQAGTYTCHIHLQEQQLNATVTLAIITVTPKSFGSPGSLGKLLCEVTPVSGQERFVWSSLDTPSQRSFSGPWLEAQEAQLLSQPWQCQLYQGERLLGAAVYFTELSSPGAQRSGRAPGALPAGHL

[7] = biological target: T6, recombinant soluble cynomolgus monkey LAG-3 (cynomolgus monkey); experiment: SPR, recombinant soluble LAG-3
T6 construct: also called Cyno LAG-3; soluble LAG-3

B1: anti-LAG-3 antibody agent TSR-033 (antibody, human IgG4 S228P, kappa, V domains shown)
VH: EVQLVQSGAEVKKPGATVKISCKASGFSIKDDYIHWVQQAPGKGLEWMGWIDAMNDDSQYSSKFQGRVTITVDTSTNTAYMKLSSLRSEDTAVYYCTYAFGGYWGQGTTVTVSS
VL: DIVMTQTPLSLSVTPGQPASISCRSSQSLVHSDSNTYLHWYLQKPGQSPQLLIYLVSNRFSGVPDRFSGSGSGTDFTLKISRVEAEDVGVYFCGQSTHVPYAFGGGTKVEIKR
modifications: N-glycosylation at N291 of the heavy chain
notes: also called exemplary anti-LAG-3 antibody agent; exemplary anti-LAG-3 antibody
With B1 the EC50 [1] was 0.8 nM, the EC50 [2] was 2.6 nM and the “EC50 (read off the curve); NFAT-luciferase reporter signal (RLU)” value [3] was about 70 nM. For the same binder, the “EC50 (read off the curve)” value [4] was about 0.06 mg/L, the IC50 [5] was 3.4 nM and the Kd [6] was 0.95 nM. It also gave a koff [6] of 0.00013 s⁻¹, a Kd [7] of 2 nM and a koff [7] of 0.00026 s⁻¹.

Reference: patent US20220135670A1 (TESARO, published 2022)
